The target in this test is endogenous Raf-1 of Rat-1 cells (rat (Rat-1 cells), UniProt P11345 1-648). The test can be described thus: co-immunoprecipitation of endogenous proteins with RKIP antiserum.

Results on one molecule are retold here after US6864224 (BROWN UNIVERSITY RESEARCH FOUNDATION, dated 2005).

Excerpt: For co-precipitation experiments of endogenous proteins, 2 ×10^7 Rat-1 cells were lysed by sonication in PBS, and the immunoprecipitates were washed 4 times with PBS.

B1: endogenous RKIP of Rat-1 cells (other, rat (Rat-1 cells), UniProt P31044 2-187, looked up)
chain: AADISQWAGPLSLQEVDEPPQHALRVDYGGVTVDELGKVLTPTQVMNRPSSISWDGLDPGKLYTLVLTDPDAPSRKDPKFREWHHFLVVNMKGNDISSGTVLSEYVGSGPPKDTGLHRYVWLVYEQEQPLNCDEPILSNKSGDNRGKFKVESFRKKYHLGAPVAGTCFQAEWDDSVPKLHDQLAGK
notes: Endogenous protein in cell lysates
Consider B1, for which the binding result was “binds”.
